B1: Gpi17: N228Q (protein)
parent chain: MSNANLRKWVGFCFVAIYLFLGVPLWYKLTTVYRASLPINYIESLQNNKFQDIHLVIPVYVKSDTYRFPDVHDAIQVQVNHLLNSQEQRVPWSLQVLPYNETIEQMESEGNQFHVVTLKLDEFIGYSSAYDTKETLVYYDDAAVLSNDLPFFVAQTLVEHTFQLEWTHLNKTCEGVSTNNDVAISYDPNIHLSVTLLSGDGNPVAWEIEPTLTDYFSPFRKFLSPLVNFTVDSSIVYHNDLNLHSLNGSCTSVTWFDLSHTIDLSELSSMAYYPEDSALNLAIVFPSASSSPDGLAFINGTRISDEITTLDWNSYLVPQWGVIIINKMPLKPNSVISEDYLEPMMYRFATDIFQLLGLTEGSQDLLSPYITIDSFKRLTILQNLDKATETLWSLVKLTQQFQGMSIPREVSDNVIEALDLRLQIIDLLNDPGKGGDIVWNNALHLSNELVKLCEKAFFNGEMVQQNFFPQEHMIAVYLPLLGPISAVMFFGFYNVMKEKNQKSKKNGTEREVAKEKLELKEAQKLHAIDGEDEL
B2: Gpi17: N299Q (protein)
parent chain: B1 parent chain
B3: Gpi16: N29Q (protein)
parent chain: MILTLAYFMLGTLLLGVFAEDTVSQIGINDSLWYPYDEALVLKPLPNNDLLLSFAFQLQSEPFDPAVSSMSYDAYEHYTTFPRAIPPLLESTATRQFHLRFTRGFWDALSWGQLPHAGKEAGASGVELWSQVQAMDQEQAFHNWKKLSNSLSGLFCSSLNFIDESRTTFPRRSYASDIGAPLFNSTEKLYLMRASLPNEPICTENLTPFIKLLPTRGKSGLTSLLDGHKLFDSLWNSISLDIATICSEDEDALCHYEMDARIEMVTHVPSALARGERPIPKPLDGNTLRCDTDKPFDSYQCFPLPEPSQTHFKLSQLFARPINNGNLFANRPTRICAEVDRSTWTAFLSVDDTIFSTHDNCFDLSNDQNEGGSGYDFILESTDTTKVTPIVPVPIHVSRSLTGNGQDRGGMRIVFHNDNDTPVKLIYFESLPWFMRVYLSSLQITSTTSPQLQENDIILDKYYLQAADRKRPGHLEFTMLIPANTDIVMTYQFDKALLQFAEYPPDANHGFEIDAAVITVLSLESSSSLYEMRTSTLLLSLSTPDFSMPYNVIILTSTIMGLIFGMLYNLMVKRMVTVEEADKITLQSGLKYKLLKLKEKFLGKKKTKTD
B4: Gpi16: N184Q (protein)
parent chain: B3 parent chain

target: not listed separately; assay: anti-FLAG western blot, HEK293F; conditions: glycan lost; control: wild type

Row | Molecule | expression_or_secretion
1 | B1 | no change
2 | B2 | no change
3 | B3 | no change
4 | B4 | no change

target: not listed separately; assay: FACS, surface GFP-V5-CWP2 in yeast chromosomal mutants; conditions: glycan lost; control: wild type

Row | Molecule | enzymatic_activity
5 | B1 | decreases
6 | B2 | decreases
7 | B3 | no change
8 | B4 | no change

target: S. cerevisiae GPI transamidase (GPIT) complex (S. cerevisiae); assay: cryo-EM structure; dimeric GPIT peak of the SEC, about 5 mg/mL, in GDN; overall resolution 4.4 Å; two copies of the monomer model docked as rigid bodies; conditions: not given

Row | Molecule | stoichiometry N
9 | S. cerevisiae GPI transamidase (GPIT) complex | 2

Reference: publication PMC12786357
